The source of these data is patent US20030009022A1 (published 2003).

Common to all, as to experiment: cell-based or functional assay
For experiment [1], the target named is T1, human formyl peptide receptor like-1 (FPRL-1) receptor (human, UniProt P25090 1-351).
T1 sequence (looked up): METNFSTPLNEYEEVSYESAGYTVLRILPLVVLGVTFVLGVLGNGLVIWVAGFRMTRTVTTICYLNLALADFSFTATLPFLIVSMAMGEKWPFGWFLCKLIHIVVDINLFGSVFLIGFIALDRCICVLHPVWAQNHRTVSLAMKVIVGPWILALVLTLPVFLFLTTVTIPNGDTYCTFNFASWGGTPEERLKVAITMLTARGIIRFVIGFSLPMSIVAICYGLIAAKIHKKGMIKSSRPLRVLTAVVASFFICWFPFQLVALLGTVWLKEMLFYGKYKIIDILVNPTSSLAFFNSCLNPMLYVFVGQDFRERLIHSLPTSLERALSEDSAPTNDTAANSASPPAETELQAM

For experiment [2], the target named is T2, human formyl peptide receptor FPR1 (human, UniProt P21462 1-350).
T2 sequence (looked up): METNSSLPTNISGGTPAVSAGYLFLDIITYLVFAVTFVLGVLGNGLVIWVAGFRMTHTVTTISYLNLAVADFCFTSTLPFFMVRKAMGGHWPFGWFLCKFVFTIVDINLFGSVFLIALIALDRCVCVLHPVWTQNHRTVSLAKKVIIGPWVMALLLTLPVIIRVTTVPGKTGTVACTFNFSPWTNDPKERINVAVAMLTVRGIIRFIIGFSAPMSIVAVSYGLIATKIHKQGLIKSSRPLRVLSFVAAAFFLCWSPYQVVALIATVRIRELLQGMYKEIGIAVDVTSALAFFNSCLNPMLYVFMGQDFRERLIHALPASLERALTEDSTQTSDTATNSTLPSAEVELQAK

Experiment [3] concerns the target T1, human formyl peptide receptor like-1 …. The source holds these as a separate data set.
Experiment [4] deals with T2, human formyl peptide receptor FPR1. The source holds these as a separate data set.

Ends that are not written are not given here. * marks the point of attachment. For = O=C* Where only a bound is given, the exact number is not on record here.

As to LESIFRSLLFRVM [peptide MMK-1], in experiment [1], the “EC50(nM), transient Ca2+ flux in HEK293/Gα16 cells expressing FPRL-1” value was < 2 nM. In addition, the “EC50(nM), transient Ca2+ flux in HEK293/Gα16 cells expressing FPR1” value in experiment [2] is > 10000 nM.

As to PPFFFRPVGMF [peptide DM-1], the “EC50(nM), transient Ca2+ flux in HEK293/Gα16 cells expressing FPRL-1” value in experiment [1] was 2400 nM. Besides, in experiment [2], the “EC50(nM), transient Ca2+ flux in HEK293/Gα16 cells expressing FPR1” value was > 10000 nM.

For CPAAVLWRWVPM [peptide AF-1], the “EC50(nM), transient Ca2+ flux in HEK293/Gα16 cells expressing FPRL-1” value in experiment [1] was 16 nM. The “EC50(nM), transient Ca2+ flux in HEK293/Gα16 cells expressing FPR1” value in experiment [2] was found to be 5000 nM.

Consider SMCPTASAWVWLM [peptide AF-2], for which the “EC50(nM), transient Ca2+ flux in HEK293/Gα16 cells expressing FPRL-1” value in experiment [1] was determined as 87 nM. In addition, the “EC50(nM), transient Ca2+ flux in HEK293/Gα16 cells expressing FPR1” value in experiment [2] came to 690 nM.

Turning to SLLWLTCRPWEAM [peptide A5, Ser-Leu-Leu-Trp-Leu-Thr-Cys-Arg-Pro-Trp-Glu-Ala-Met], in experiment [3], the “EC50, calcium mobilization in indo-1 loaded human neutrophils” value was ~300 nM; the “apparent EC50, induction of β-galactosidase activity by synthetic peptide added to yeast strain CY6565” value was ~5000 nM; the “induction of β-galactosidase activity (FUSI-lacZ, yeast)” value came to 7 fold; the “stimulation over background levels of β-galactosidase (fus1-lacZ, yeast)” value was 8 fold. Moreover, in experiment [1], the “EC50(nM), transient Ca2+ flux in HEK293/Gα16 cells expressing FPRL-1” value turned out to be 35 nM. Besides, in experiment [2], the “EC50(nM), transient Ca2+ flux in HEK293/Gα16 cells expressing FPR1” value was > 10000 nM.

Regarding For-SLLWLTCRPWEAM [f-A5, N-terminally formylated derivative of peptide A5], in experiment [3], the “EC50 against that of A5, calcium mobilization in indo-1 loaded human neutrophils” value came to 10 fold lower EC50 than A5. Further, in experiment [4], the “EC50, calcium mobilization in HEK293/Gα16 cells expressing FPR1” value stood at 0.1 nM. For the same molecule, the “EC50(nM), transient Ca2+ flux in HEK293/Gα16 cells expressing FPRL-1” value in experiment [1] came out at 2 nM. In addition, the “EC50(nM), transient Ca2+ flux in HEK293/Gα16 cells expressing FPR1” value in experiment [2] stood at 10 nM.

In the case of RFPKNCHLRPPRMILFTALV [peptide AF-3], the “EC50(nM), transient Ca2+ flux in HEK293/Gα16 cells expressing FPRL-1” value in experiment [1] came to 650 nM. Further, in experiment [2], the “EC50(nM), transient Ca2+ flux in HEK293/Gα16 cells expressing FPR1” value turned out to be 380 nM.

Turning to MMWLL [peptide MMWLL, Met-Met-Trp-Leu-Leu], the “EC50(nM), transient Ca2+ flux in HEK293/Gα16 cells expressing FPRL-1” value in experiment [1] was 80 nM. For the same molecule, the “EC50(nM), transient Ca2+ flux in HEK293/Gα16 cells expressing FPR1” value in experiment [2] was < 0.3 nM.

On to For-Met-Leu-Phe [fMLP, formyl-MLF], for which, in experiment [3], the “EC50, transient calcium mobilization in HEK293/Gα16 cells expressing FPRL-1” value is 400 nM. For the same molecule, the “EC50, calcium mobilization in human neutrophils” value in experiment [4] was < 0.2 nM. The “EC50(nM), transient Ca2+ flux in HEK293/Gα16 cells expressing FPRL-1” value in experiment [1] came out at 40 nM. Moreover, in experiment [2], the “EC50(nM), transient Ca2+ flux in HEK293/Gα16 cells expressing FPR1” value is < 0.3 nM.
